The source of these data is article PMC4950008.

The target in this data set is T1, His-GlnR (UniProt O53830).
T1 sequence: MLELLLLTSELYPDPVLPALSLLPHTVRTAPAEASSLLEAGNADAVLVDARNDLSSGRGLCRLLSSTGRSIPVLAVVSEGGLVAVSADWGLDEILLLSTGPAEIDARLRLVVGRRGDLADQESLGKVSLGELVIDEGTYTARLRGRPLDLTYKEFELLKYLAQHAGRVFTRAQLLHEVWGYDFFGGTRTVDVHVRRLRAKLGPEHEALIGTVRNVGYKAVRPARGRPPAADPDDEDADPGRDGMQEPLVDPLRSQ
The data set is described as follows: EMSA. (In general: In EMSA bound probe runs differently from free probe, usually more slowly.)

Consider “ACTCCCTGCGGCAAGGTGTAGGCCAGCTCGCGCAACTTAACCGCGCACTCGTAGAGCGTCTGGCGGAAATGCGTTTCGGTCATCGGGGTGCCTTCGCTCGTCGGCGAGATCGGCAGCGGTGTCTTGTGCTCATACAGATCAATCTCATTCATCAGAGCCATCATTCGCCGGCTAGCAGCTGCAAATCATCAGCACATCCACGTATGTC (double strand) [Rv1360 upstream region (negative control)]”, for which the binding entry is listed as “no binding”. In the case of “CACAGACTCCATCTGTTGGGGGTTCAACGGGGATTCAACCGGACACTTAGCGCCACTATTGAATATGAATATCATTTGAACGAGAGGTTAACACAGCGTGACGACGGCCCAGGGCGGTGAGTTTGGTCACACGAGCGCTGGGCTCACCACCCCATGCTGGTGGGATTTAGC (double strand) [peak 13, Rv1386 (PE15) promoter region]” it was “binds”; in that of “CATGAGCTGATGAATGGAGTCCACTACCGGCCGGTGCGGCGACCAAGGATCTGTTTGCGACGGGATCTGTGCGACGTTGGCGGCAATCAGCTTGTTACAGCTGATAATCCGAGCGTGATCGCGACCTAACCGGCAGGCAACGCCGGCATGGTCCCCTGGCACGATGGGACTACTGTCACGCTTGCGCAAACGTGAGCCGATCAGCATCTACGACAAGATC (double strand) [peak 17, Rv1542c (glbN) promoter region]”, “binds”; in that of “GTACGTCCACAATCGAAGGACGCGGAAGCACGGGGCCGCGACCACCGAGACCCGTGGCGGCCCATGGCCGCAAGGAGGCTCCTCGCGAGATTCGTCACGCGTTACCTGGATTTAACCTGCGCCCGTCCGAAGCGCCCGGCTTTTTCGTAGGCTTCGCTGCGGTTGGGGCCAGACAGCGCCGTGAAGCCCGGTGGGTGTGGCCGGCTGACGGGATGGT (double strand) [peak 18, Rv1548c (PPE22)/Rv1549 (fadD11) promoter region]”, “binds”.
